Laboratory results from publication PMC5442856, “A bacterial negative transcription regulator binding on an inverted repeat in the promoter for epothilone biosynthesis”.

Molecular target: T1, Esi (His-Esi) (Sorangium cellulosum So0157-2, UniProt UPI000354DD11 1-373)
T1 sequence: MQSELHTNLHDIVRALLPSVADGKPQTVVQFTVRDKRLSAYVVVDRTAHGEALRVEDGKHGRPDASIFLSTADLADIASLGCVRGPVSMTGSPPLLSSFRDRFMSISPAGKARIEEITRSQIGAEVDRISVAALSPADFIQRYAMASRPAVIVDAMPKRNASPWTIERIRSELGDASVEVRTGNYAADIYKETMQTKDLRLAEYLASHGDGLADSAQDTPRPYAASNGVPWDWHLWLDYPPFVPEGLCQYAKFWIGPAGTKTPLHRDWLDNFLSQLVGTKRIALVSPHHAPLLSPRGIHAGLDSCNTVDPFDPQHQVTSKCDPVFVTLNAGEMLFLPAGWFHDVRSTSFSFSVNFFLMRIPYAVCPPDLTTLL
Test: EMSA; poly(dI-dC) competitor; increasing His-Esi; 12 pmol DNA; EMSA: 25 uL with 2.5 uL of 10x buffer (final about 12 mM HEPES, 4 mM Tris, 60 mM KCl, 5 mM MgCl2, 0.1 mM EDTA, pH 8.0), 1 uL glycerol buffer (20% glycerol, 20 mM HEPES), poly(dI-dC), remainder protein and 50 mM NaH2PO4; 30 C, 30 min; 5% native PAGE in TGE pH 8.0 at 4 C
Conditions: protein: recombinant; tags: N-terminal 6xHis (pET-28a); blunt

B1: 17-bp operator of epothilone promoter (dsDNA)
DNA 1: GGGACGAGCTAATTCCC
DNA 2: GGGAATTAGCTCGTCCC
Question: Does B1 bind?
Answer: Result: binds
